Laboratory results from US20050234225A1.

Assays:
[1] = molecular target: KDR-alkaline phosphatase (AP) soluble fusion protein (human) (UniProt P35968); assay: competitive blocking ELISA: antibody pre-incubated with KDR-AP, then binding of KDR-AP to immobilised VEGF165, A405
[2] = molecular target: KDR-alkaline phosphatase (AP) soluble fusion protein (human) (UniProt P35968); assay: BIAcore SPR, KDR immobilized
[3] = molecular target: cell-surface KDR (human) (UniProt P35968); assay: cell-based or functional assay
Sequence of cell-surface KDR (human) (P35968 20-1356): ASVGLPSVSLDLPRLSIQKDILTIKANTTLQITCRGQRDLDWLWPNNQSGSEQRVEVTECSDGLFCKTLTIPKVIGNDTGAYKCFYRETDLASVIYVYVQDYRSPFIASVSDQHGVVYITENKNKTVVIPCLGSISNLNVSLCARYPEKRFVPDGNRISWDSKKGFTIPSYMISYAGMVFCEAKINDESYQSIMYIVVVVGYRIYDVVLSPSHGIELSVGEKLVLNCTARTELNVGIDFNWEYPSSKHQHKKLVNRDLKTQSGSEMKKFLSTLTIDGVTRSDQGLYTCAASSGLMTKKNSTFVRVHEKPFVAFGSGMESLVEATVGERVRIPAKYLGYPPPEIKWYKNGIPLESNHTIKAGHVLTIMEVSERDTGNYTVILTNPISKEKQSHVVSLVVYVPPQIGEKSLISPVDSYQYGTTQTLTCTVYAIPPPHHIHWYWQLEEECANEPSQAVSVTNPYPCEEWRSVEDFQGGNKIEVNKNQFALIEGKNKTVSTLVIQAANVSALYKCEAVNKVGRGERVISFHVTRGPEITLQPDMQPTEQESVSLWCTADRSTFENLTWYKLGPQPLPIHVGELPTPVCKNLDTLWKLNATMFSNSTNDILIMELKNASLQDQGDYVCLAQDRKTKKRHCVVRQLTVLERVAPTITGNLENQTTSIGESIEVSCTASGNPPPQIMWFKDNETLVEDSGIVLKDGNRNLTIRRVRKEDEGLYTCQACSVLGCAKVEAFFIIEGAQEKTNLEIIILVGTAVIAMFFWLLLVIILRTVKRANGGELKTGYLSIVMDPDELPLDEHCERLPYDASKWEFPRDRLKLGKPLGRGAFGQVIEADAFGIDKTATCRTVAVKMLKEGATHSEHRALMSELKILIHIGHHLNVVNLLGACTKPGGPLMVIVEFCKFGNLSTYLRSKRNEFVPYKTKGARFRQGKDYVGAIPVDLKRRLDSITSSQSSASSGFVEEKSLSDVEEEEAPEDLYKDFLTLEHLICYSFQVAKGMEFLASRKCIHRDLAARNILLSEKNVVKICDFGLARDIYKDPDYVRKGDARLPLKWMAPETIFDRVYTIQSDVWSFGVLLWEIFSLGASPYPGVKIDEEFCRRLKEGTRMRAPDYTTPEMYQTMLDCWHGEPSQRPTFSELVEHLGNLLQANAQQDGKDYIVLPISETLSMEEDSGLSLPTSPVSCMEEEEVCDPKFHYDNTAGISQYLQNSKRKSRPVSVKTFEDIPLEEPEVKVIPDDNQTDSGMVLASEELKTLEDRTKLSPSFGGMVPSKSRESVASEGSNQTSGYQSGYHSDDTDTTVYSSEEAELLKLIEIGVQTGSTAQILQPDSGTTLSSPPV

Sequence of KDR-alkaline phosphatase (AP) soluble fusion protein (human) (P35968 20-764): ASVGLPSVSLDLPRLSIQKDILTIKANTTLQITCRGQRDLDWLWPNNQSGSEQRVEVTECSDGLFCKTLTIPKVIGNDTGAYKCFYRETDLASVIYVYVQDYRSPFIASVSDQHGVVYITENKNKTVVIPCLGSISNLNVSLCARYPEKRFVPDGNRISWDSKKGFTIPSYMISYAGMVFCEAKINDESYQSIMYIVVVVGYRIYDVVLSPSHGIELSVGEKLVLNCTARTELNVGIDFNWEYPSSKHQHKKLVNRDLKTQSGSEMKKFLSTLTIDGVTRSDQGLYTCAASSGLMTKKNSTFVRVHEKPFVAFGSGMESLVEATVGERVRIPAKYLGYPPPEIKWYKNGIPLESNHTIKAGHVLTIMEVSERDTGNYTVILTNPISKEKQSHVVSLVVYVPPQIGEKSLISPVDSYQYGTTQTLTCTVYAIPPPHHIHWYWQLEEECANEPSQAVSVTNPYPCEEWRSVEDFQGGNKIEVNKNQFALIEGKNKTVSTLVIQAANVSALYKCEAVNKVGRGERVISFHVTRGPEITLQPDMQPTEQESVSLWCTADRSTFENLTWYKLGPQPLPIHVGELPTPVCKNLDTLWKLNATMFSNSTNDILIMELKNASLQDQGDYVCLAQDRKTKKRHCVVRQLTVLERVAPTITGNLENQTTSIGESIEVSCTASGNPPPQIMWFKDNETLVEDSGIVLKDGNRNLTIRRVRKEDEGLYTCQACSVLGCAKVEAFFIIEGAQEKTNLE

## IMC-1C11 (antibody)
[1]
  IC50 (read off the curve): 1 nM
[2]
  Kd: 0.27 nM
  fold change of Kd against its Fab counterpart: 5 fold
  koff: 3.7e-05 s⁻¹
  kon: 134000 M⁻¹ s⁻¹
[3]
  ED50 of inhibition of VEGF-stimulated [3H]-TdR incorporation in HUVEC: 1.5 nM
